Measured values from patent publication US20150175665A1 (IPSEN PHARMA S A S, published 2015).

B1: [3Cl-Tyr^1, Aib^2, A5c^11, Nle^14, Cys^43(succinimide-N-(CH2)2-C(O)NH-(CH2)3-O-CH2-CH(20K PEG)-CH2-20K PEG)]hGIP(1-43)-NH2 (peptide)
peptide: YXEGTFISDYXIAXDKIHQQDFVNWLLAQKGKKNDWKHNITQC
modifications: 3Cl-Tyr at 1; Aib at 2; A5c at 11; Nle at 14; Cys(succinimide-N-(CH2)2-C(O)NH-(CH2)3-O-CH2-CH(20K PEG)-CH2-20K PEG) at 43; C-terminal amide
notes: Branched PEGylated analogue
B2: (4Hppa^1, Aib^2, A5c^7, Nle^14)hGIP(1-30)-NH2 (peptide)
peptide: XXEGTFXSDYSIAXDKIHQQDFVNWLLAQK
modifications: 4Hppa (3-(4-hydroxyphenyl)propionic acid) at 1; Aib at 2; A5c at 7; Nle at 14; C-terminal amide

Target: T1, human recombinant GIP receptor (human, UniProt P48546 22-466)
T1 construct: whole, on cells; Assayed as washed membranes of CHO-K1 cells expressing the receptor; also called hGIP receptor
T1 sequence (looked up): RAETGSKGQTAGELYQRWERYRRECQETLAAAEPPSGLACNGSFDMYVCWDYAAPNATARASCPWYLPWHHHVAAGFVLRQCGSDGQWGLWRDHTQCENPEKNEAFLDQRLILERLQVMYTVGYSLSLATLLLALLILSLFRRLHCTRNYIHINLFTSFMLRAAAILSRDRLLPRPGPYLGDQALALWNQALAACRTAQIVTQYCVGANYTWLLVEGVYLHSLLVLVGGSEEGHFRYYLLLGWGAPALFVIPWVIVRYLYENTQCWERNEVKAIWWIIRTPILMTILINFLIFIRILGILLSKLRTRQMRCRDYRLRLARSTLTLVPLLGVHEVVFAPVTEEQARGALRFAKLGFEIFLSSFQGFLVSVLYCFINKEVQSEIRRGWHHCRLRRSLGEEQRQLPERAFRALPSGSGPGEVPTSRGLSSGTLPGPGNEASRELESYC
Experiment: displacement of [125I]GIP, membranes of CHO-K1 cells expressing human GIP receptor
Description: Membranes for in vitro receptor binding assays were prepared by homogenizing the CHO—K1 clonal cells expressing the human recombinant GIP receptor, with a Brinkman Polytron (setting 6, 15 sec), in ice-cold 50 mM Tris-HCl and then subjected to two centrifugations at 39,000 g for 10 minutes, with a resuspension in fresh buffer in between. For the assay, aliquots of the washed membrane preparations were incubated (100 minutes at 25° C. with 0.05 nM [¹²⁵1]GIP (2200 Ci/mmol) in 50 mM Tris-HCl, 0.1 mg/ml bacitracin, and 0.1% BSA. The final assay volume was 0.5 ml. The incubations were terminated by rapid filtration through GF/C filters (pre-soaked in 0.5% polyethylenimine) using a Brandel filtration manifold. Each tube and filter were then washed three times with 5-ml aliquots of ice-cold buffer.
Specific binding was defined as the total radioligand bound minus that bound in the presence of 1000 nM GIP.

Binder | Ki [nM]
FXEGTFISDYXIAMDKIHQQDFVNWLLAQKGKKNDWKHNIXQ (3F-Phe at 1; Aib at 2; A5c at 11 and 41) [(3F-Phe^1, Aib^2, A5c^11, 41)hGIP(1-42)-OH] | 5.43
YXEGTFISDYSIXXDKIHQQDFVNWLLAQKGKKNDWKHNITQ (3,5Br-Tyr at 1; Aib at 2 and 13; Nle at 14) [(3,5Br-Tyr^1, Aib^2, 13, Nle^14)hGIP(1-42)-OH] | 4.26
YXEGTFISDYXIAXDKIHQQDFVNWLLAQKGKKNDWKHNITQ (3Br-Tyr at 1; Aib at 2; A5c at 11; Nle at 14) [(3Br-Tyr^1, Aib^2, A5c^11, Nle^14)hGIP(1-42)-OH] | 0.6
YXEGTFISDYXIAXDKIHQQDFVNWLLAQKGKKNDWKHNITQ (3I-Tyr at 1; Aib at 2; A5c at 11; Nle at 14) [(3I-Tyr^1, Aib^2, A5c^11, Nle^14)hGIP(1-42)-OH] | 5.03
FXEGTFISDYXIAMDKIHQQDFVNWLLAQKGKKNDWKHNITQH (4Me-Phe at 1; Aib at 2; A5c at 11) [(4Me-Phe^1, Aib^2, A5c^11, His^43)hGIP(1-43)-OH] | 9.13
XXEGTFISDYXIAXDKIHQQDFVNWLLAQKGKKNDWKHNITQH (3MeO-Tyr at 1; Aib at 2; A5c at 11 and 14) [(3MeO-Tyr^1, Aib^2, A5c^11, 14, His^43)hGIP(1-43)-OH] | 9.34
XXEGTFISDYXIAXDKIHQQDFVNWLLAQKGKKNDWKHNIXQH (3MeO-Tyr at 1; Aib at 2; A5c at 11, 14 and 41) [(3MeO-Tyr^1, Aib^2, A5c^11, 14, 41-His^43)hGIP(1-43)-OH] | 6.4
YAEGTFISDYXIAXDKIHQQDFVNWLLAQKGKKNDWKHNITQH (3Cl-Tyr at 1; D-Ala at 2; A5c at 11 and 14, X stands for a non-natural residue) [(3Cl-Tyr^1, D-Ala^2, A5c^11, 14, His^43)hGIP(1-43)-OH] | 5.06
YXEGTFISDYXIAXDKIHQQDFVNWLLAQKGKKNDWKHNITQH (3Br-Tyr at 1; Aib at 2; A5c at 11; Nle at 14) [(3Br-Tyr^1, Aib^2, A5c^11, Nle^14, His^43)hGIP(1-43)-OH] | 1.09
YXEGTFISDYXIAXDKIHQQDFVNWLLAQKGKKNDWKHNITQH (2,6Me-Tyr at 1; Aib at 2; A5c at 11; Nle at 14) [(2,6Me-Tyr^1, Aib^2, A5c^11, Nle^14, His^43)hGIP(1-43)-OH] | 39
XXEGTFISDYXIAMDKIHQQDFVNWLLAQKGKKNDWKHNITQH (3MeO-Tyr at 1; Aib at 2; A5c at 11) [(3MeO-Tyr^1, Aib^2, A5c^11, His^43)hGIP(1-43)-OH] | 3.9
YXEGTFISDYXIAXDKIHQQDFVNWLLAQKGKKNDWKHNITQH (3Cl-Tyr at 1; Aib at 2; A5c at 11; Nle at 14) [(3Cl-Tyr^1, Aib^2, A5c^11, Nle^14, His^43)hGIP(1-43)-OH] | 0.76
YXEGTFISDYXIAXDKIHQQDFVNWLLAQKGKKNDWKHNITQH (3Br-Tyr at 1; Aib at 2; A5c at 11 and 14) [(3Br-Tyr^1, Aib^2, A5c^11, 14, His^43)hGIP(1-43)-OH] | 0.92
YXEGTFISDYXIAXDKIHQQDFVNWLLAQKGKKNDWKHNITQH (3Cl-Tyr at 1; Aib at 2; A5c at 11 and 14) [(3Cl-Tyr^1, Aib^2, A5c^11, 14, His^43)hGIP(1-43)-OH] | 0.78
YXEGTFISDYXIAXDKIHQQDFVNWLLAQKGKKNDWKHNITQH (2,6Me-Tyr at 1; Aib at 2; A5c at 11 and 14) [(2,6Me-Tyr^1, Aib^2, A5c^11, 14, His^43)hGIP(1-43)-OH] | 50.2
YAEGTFISDYXIAXDKIHQQDFVNWLLAQKGKKNDWKHNITQH (3Cl-Tyr at 1; D-Ala at 2; A5c at 11; Nle at 14, X stands for a non-natural residue) [(3Cl-Tyr^1, D-Ala^2, A5c^11, Nle^14, His^43)hGIP(1-43)-OH] | 8.89
YAEGTFISDYXIAXDKIHQQDFVNWLLAQKGKKNDWKHNITQK (3Cl-Tyr at 1; D-Ala at 2; A5c at 11 and 14; Lys(N-C(O)-(CH2)10-CH3) at 43, X stands for a non-natural residue) [[3Cl-Tyr^1, D-Ala^2, A5c^11, 14, Lys^43(N-C(O)-(CH2)10-CH3)]hGIP(1-43)-OH] | 9.06
YAEGTFISDYXIAXDKIHQQDFVNWLLAQKGKKNDWKHNITQC (3Cl-Tyr at 1; D-Ala at 2; A5c at 11; Nle at 14; Cys(succinimide) at 43, X stands for a non-natural residue) [[3Cl-Tyr^1, D-Ala^2, A5c^11, Nle^14, Cys^43(succinimide)]hGIP(1-43)-OH] | 9.13
YAEGTFISDYXIAXDKIHQQDFVNWLLAQKGKKNDWKHNITQK (3Cl-Tyr at 1; D-Ala at 2; A5c at 11; Nle at 14; Lys(N-C(O)-(CH2)10-CH3) at 43, X stands for a non-natural residue) [[3Cl-Tyr^1, D-Ala^2, A5c^11, Nle^14, Lys^43(N-C(O)-(CH2)10-CH3)]hGIP(1-43)-OH] | 6.64
YXEGTFISDYXIAMDKIHQQDFVNWLLAQKGKKNDWKHNITQH (2,6Me-Tyr at 1; Aib at 2; A5c at 11) [(2,6Me-Tyr^1, Aib^2, A5c^11, His^43)hGIP(1-43)-OH] | 35
YXEGTFISDYXIAXDKIHQQDFVNWLLAQKGKKNDWKHNITQC (3Cl-Tyr at 1; Aib at 2; A5c at 11; Nle at 14) [(3Cl-Tyr^1, Aib^2, A5c^11, Nle^14, Cys^43)hGIP(1-43)-OH] | 0.83
B1 | 42.4
YAEGTFISDYXIAXDKIHQQDFVNWLLAQKGKKNDWKHNITQC (3Cl-Tyr at 1; D-Ala at 2; A5c at 11 and 14; Cys(succinimide) at 43, X stands for a non-natural residue) [[3Cl-Tyr^1, D-Ala^2, A5c^11, 14, Cys^43(succinimide)]hGIP(1-43)-OH] | 1.41
YGEGTFISDYXIAMDKIHQQDFVNWLLAQKGKKNDWKHNXTQ (3F-Tyr at 1; A5c at 11 and 40) [(3F-Tyr^1, Gly^2, A5c^11, 40)hGIP(1-42)-OH] | 10.4
YGEGTFISDYXIAMDKIHQQDFVNWLLAQKGKKNDWKHNIXQ (pseudopeptide bond Ψ-(CH2-NH) between Tyr 1 and Gly 2; A5c at 11 and 41) [[Tyr^1-Ψ-(CH2-NH)Gly^2, A5c^11, 41]hGIP(1-42)-OH] | 49
XXEGTFISDYXIAMDKIHQQDFVNWLLAQK (4Hppa at 1; Aib at 2 and 11; C-terminal amide) [(4Hppa^1, Aib^2, 11)hGIP(1-30)-NH2] | 15.4
XXEGTFISDYXIAXDKIHQQDFVNWLLAQK (4Hppa at 1; Aib at 2 and 11; Nle at 14; C-terminal amide) [(4Hppa^1, Aib^2, 11, Nle^14)hGIP(1-30)-NH2] | 20.3
B2 | 12.6
